Biological target: HIF1α (hypoxia-inducible factor 1 alpha) (UniProt Q16665)
Assay: cell-based or functional assay

## EGL nine (C.elegans) homolog 3 (EGLN3), full length (from UniProt Q9H6Z9 1-239)
  HIF1α activity measured in Luciferase units from the HRE-Luc reporter, 293T cells in normoxia, co-transfected with CMV-HIF and CMV-SVFL1 (CMV-HIF with HRE-Luc alone: 20953 Luciferase units) (Luciferase units): 918

Source: patent publication US20030203372A1, “Analysis method” (priority 2000, published 2003)
